These results are taken from US20220298218A1 (ANTAG THERAPEUTICS, published 2022).

The assay deals with T1, human GIP receptor (human, UniProt P48546 22-466).
T1 sequence (looked up): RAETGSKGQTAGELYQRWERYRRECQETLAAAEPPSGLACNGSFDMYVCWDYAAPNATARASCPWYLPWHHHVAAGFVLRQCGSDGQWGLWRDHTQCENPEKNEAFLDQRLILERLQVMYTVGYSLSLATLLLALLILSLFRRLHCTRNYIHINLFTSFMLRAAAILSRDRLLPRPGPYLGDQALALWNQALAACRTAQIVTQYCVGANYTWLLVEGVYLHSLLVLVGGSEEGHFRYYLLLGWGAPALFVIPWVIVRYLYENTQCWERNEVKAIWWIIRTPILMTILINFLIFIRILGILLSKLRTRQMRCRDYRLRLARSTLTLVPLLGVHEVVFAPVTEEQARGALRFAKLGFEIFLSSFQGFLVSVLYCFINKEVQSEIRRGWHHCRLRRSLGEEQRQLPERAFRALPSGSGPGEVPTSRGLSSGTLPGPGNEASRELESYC
The assay is described as follows: cell-based or functional assay.

*1 amine or outer side, *2 acyl side, *3 side chain or, on linkers, in order; H or OH if unused. Where no end group is shown, it is not given here. Side-chain parts run from the residue outwards. The star is where a group is joined. C18 diacid = O=C(O)CCCCCCCCCCCCCCCCC(=O)*; C16 diacid = O=C(O)CCCCCCCCCCCCCCC(=O)*; γGlu = O=C(O)[C@H](CCC(=O)[*:2])N[*:1]; AEEA = NCCOCCOCC(=O)O

B1: AT626 (peptide)
peptide: EGTFISDYSIAMDKIK(C16 diacid)QQDFVNWLLEGGPSSGAPPPS-OH
modifications: N-terminus assumed
SMILES: CC[C@H](C)[C@H](NC(=O)[C@H](CO)NC(=O)[C@H](Cc1ccc(O)cc1)NC(=O)[C@H](CC(=O)O)NC(=O)[C@H](CO)NC(=O)[C@@H](NC(=O)[C@H](Cc1ccccc1)NC(=O)[C@@H](NC(=O)CNC(=O)[C@@H](N)CCC(=O)O)[C@@H](C)O)[C@@H](C)CC)C(=O)N[C@@H](C)C(=O)N[C@@H](CCSC)C(=O)N[C@@H](CC(=O)O)C(=O)N[C@@H](CCCCN)C(=O)N[C@H](C(=O)N[C@@H](CCCCNC(=O)CCCCCCCCCCCCCCC(=O)O)C(=O)N[C@@H](CCC(N)=O)C(=O)N[C@@H](CCC(N)=O)C(=O)N[C@@H](CC(=O)O)C(=O)N[C@@H](Cc1ccccc1)C(=O)N[C@H](C(=O)N[C@@H](CC(N)=O)C(=O)N[C@@H](Cc1c[nH]c2ccccc12)C(=O)N[C@@H](CC(C)C)C(=O)N[C@@H](CC(C)C)C(=O)N[C@@H](CCC(=O)O)C(=O)NCC(=O)NCC(=O)N1CCC[C@H]1C(=O)N[C@@H](CO)C(=O)N[C@@H](CO)C(=O)NCC(=O)N[C@@H](C)C(=O)N1CCC[C@H]1C(=O)N1CCC[C@H]1C(=O)N1CCC[C@H]1C(=O)N[C@@H](CO)C(=O)O)C(C)C)[C@@H](C)CC
For the molecule B1, the “cAMP agonism % Emax” value turned out to be 0%, the “cAMP antagonism” value is 4.47 nM, the “cAMP antagonism % inhib” value was 100% and the “cAMP antagonism pIC50” value amounted to 8.4.

B2: AT632 (peptide)
peptide: TFISDYKIAMDKIHQQDFVNWLLAQKPSSGAPPPS
HELM: PEPTIDE1{T.F.I.S.D.Y.K.I.A.M.D.K.I.H.Q.Q.D.F.V.N.W.L.L.A.Q.K.P.S.S.G.A.P.P.P.S}|PEPTIDE2{[O=C(O)CCCCCCCCCCCCCCC(=O)[*:2]].[gGlu]}$PEPTIDE1,PEPTIDE2,7:R3-2:R2$$$V2.0; N-terminus assumed
SMILES: CC[C@H](C)[C@H](NC(=O)[C@H](CCCCNC(=O)CC[C@H](NC(=O)CCCCCCCCCCCCCCC(=O)O)C(=O)O)NC(=O)[C@H](Cc1ccc(O)cc1)NC(=O)[C@H](CC(=O)O)NC(=O)[C@H](CO)NC(=O)[C@@H](NC(=O)[C@H](Cc1ccccc1)NC(=O)[C@@H](N)[C@@H](C)O)[C@@H](C)CC)C(=O)N[C@@H](C)C(=O)N[C@@H](CCSC)C(=O)N[C@@H](CC(=O)O)C(=O)N[C@@H](CCCCN)C(=O)N[C@H](C(=O)N[C@@H](Cc1c[nH]cn1)C(=O)N[C@@H](CCC(N)=O)C(=O)N[C@@H](CCC(N)=O)C(=O)N[C@@H](CC(=O)O)C(=O)N[C@@H](Cc1ccccc1)C(=O)N[C@H](C(=O)N[C@@H](CC(N)=O)C(=O)N[C@@H](Cc1c[nH]c2ccccc12)C(=O)N[C@@H](CC(C)C)C(=O)N[C@@H](CC(C)C)C(=O)N[C@@H](C)C(=O)N[C@@H](CCC(N)=O)C(=O)N[C@@H](CCCCN)C(=O)N1CCC[C@H]1C(=O)N[C@@H](CO)C(=O)N[C@@H](CO)C(=O)NCC(=O)N[C@@H](C)C(=O)N1CCC[C@H]1C(=O)N1CCC[C@H]1C(=O)N1CCC[C@H]1C(=O)N[C@@H](CO)C(=O)O)C(C)C)[C@@H](C)CC
Turning to B2, the “cAMP agonism % Emax” value came to 0%, the “cAMP antagonism” value is 8.41 nM, the “cAMP antagonism % inhib” value came to 100% and the “cAMP antagonism pIC50” value was 8.1.

B3: AT627 (peptide)
peptide: EGTFISDYSIAMDKIK(C18 diacid)QQDFVNWLLAQKPSSGAPPPS-OH
modifications: N-terminus assumed
SMILES: CC[C@H](C)[C@H](NC(=O)[C@H](CO)NC(=O)[C@H](Cc1ccc(O)cc1)NC(=O)[C@H](CC(=O)O)NC(=O)[C@H](CO)NC(=O)[C@@H](NC(=O)[C@H](Cc1ccccc1)NC(=O)[C@@H](NC(=O)CNC(=O)[C@@H](N)CCC(=O)O)[C@@H](C)O)[C@@H](C)CC)C(=O)N[C@@H](C)C(=O)N[C@@H](CCSC)C(=O)N[C@@H](CC(=O)O)C(=O)N[C@@H](CCCCN)C(=O)N[C@H](C(=O)N[C@@H](CCCCNC(=O)CCCCCCCCCCCCCCCCC(=O)O)C(=O)N[C@@H](CCC(N)=O)C(=O)N[C@@H](CCC(N)=O)C(=O)N[C@@H](CC(=O)O)C(=O)N[C@@H](Cc1ccccc1)C(=O)N[C@H](C(=O)N[C@@H](CC(N)=O)C(=O)N[C@@H](Cc1c[nH]c2ccccc12)C(=O)N[C@@H](CC(C)C)C(=O)N[C@@H](CC(C)C)C(=O)N[C@@H](C)C(=O)N[C@@H](CCC(N)=O)C(=O)N[C@@H](CCCCN)C(=O)N1CCC[C@H]1C(=O)N[C@@H](CO)C(=O)N[C@@H](CO)C(=O)NCC(=O)N[C@@H](C)C(=O)N1CCC[C@H]1C(=O)N1CCC[C@H]1C(=O)N1CCC[C@H]1C(=O)N[C@@H](CO)C(=O)O)C(C)C)[C@@H](C)CC
For the molecule B3, the “cAMP agonism % Emax” value came out at 0%, the “cAMP antagonism” value came out at 15.9 nM, the “cAMP antagonism % inhib” value was 97% and the “cAMP antagonism pIC50” value came out at 7.8.

B4: AT630 (peptide)
peptide: EGTFISDYSIAMDKIKQQDFVNWLLAQKPSSGAPPPS
HELM: PEPTIDE1{E.G.T.F.I.S.D.Y.S.I.A.M.D.K.I.K.Q.Q.D.F.V.N.W.L.L.A.Q.K.P.S.S.G.A.P.P.P.S}|PEPTIDE2{[O=C(O)CCCCCCCCCCCCCCC(=O)[*:2]].[gGlu]}$PEPTIDE1,PEPTIDE2,16:R3-2:R2$$$V2.0; N-terminus assumed
SMILES: CC[C@H](C)[C@H](NC(=O)[C@H](CO)NC(=O)[C@H](Cc1ccc(O)cc1)NC(=O)[C@H](CC(=O)O)NC(=O)[C@H](CO)NC(=O)[C@@H](NC(=O)[C@H](Cc1ccccc1)NC(=O)[C@@H](NC(=O)CNC(=O)[C@@H](N)CCC(=O)O)[C@@H](C)O)[C@@H](C)CC)C(=O)N[C@@H](C)C(=O)N[C@@H](CCSC)C(=O)N[C@@H](CC(=O)O)C(=O)N[C@@H](CCCCN)C(=O)N[C@H](C(=O)N[C@@H](CCCCNC(=O)CC[C@H](NC(=O)CCCCCCCCCCCCCCC(=O)O)C(=O)O)C(=O)N[C@@H](CCC(N)=O)C(=O)N[C@@H](CCC(N)=O)C(=O)N[C@@H](CC(=O)O)C(=O)N[C@@H](Cc1ccccc1)C(=O)N[C@H](C(=O)N[C@@H](CC(N)=O)C(=O)N[C@@H](Cc1c[nH]c2ccccc12)C(=O)N[C@@H](CC(C)C)C(=O)N[C@@H](CC(C)C)C(=O)N[C@@H](C)C(=O)N[C@@H](CCC(N)=O)C(=O)N[C@@H](CCCCN)C(=O)N1CCC[C@H]1C(=O)N[C@@H](CO)C(=O)N[C@@H](CO)C(=O)NCC(=O)N[C@@H](C)C(=O)N1CCC[C@H]1C(=O)N1CCC[C@H]1C(=O)N1CCC[C@H]1C(=O)N[C@@H](CO)C(=O)O)C(C)C)[C@@H](C)CC
B4: the “cAMP agonism % Emax” value amounted to 0%, the “cAMP antagonism” value came to 11.2 nM, the “cAMP antagonism % inhib” value was determined as 85% and the “cAMP antagonism pIC50” value was found to be 8.

B5: AT628 (peptide)
peptide: EGTFISDYSIAMDKIK(C18)QQDFVNWLLAQKPSSGAPPPS-OH
As to B5, the “cAMP agonism % Emax” value was determined as 0%, the “cAMP antagonism” value was 58.4 nM, the “cAMP antagonism % inhib” value was found to be 94% and the “cAMP antagonism pIC50” value stood at 7.2.

B6: AT629 (peptide)
peptide: EGTFISDYSIAMDKIK([AEEA-AEEA-γGlu-C16 diacid])QQDFVNWLLAQKPSSGAPPPS-OH
modifications: N-terminus assumed
SMILES: CC[C@H](C)[C@H](NC(=O)[C@H](CO)NC(=O)[C@H](Cc1ccc(O)cc1)NC(=O)[C@H](CC(=O)O)NC(=O)[C@H](CO)NC(=O)[C@@H](NC(=O)[C@H](Cc1ccccc1)NC(=O)[C@@H](NC(=O)CNC(=O)[C@@H](N)CCC(=O)O)[C@@H](C)O)[C@@H](C)CC)C(=O)N[C@@H](C)C(=O)N[C@@H](CCSC)C(=O)N[C@@H](CC(=O)O)C(=O)N[C@@H](CCCCN)C(=O)N[C@H](C(=O)N[C@@H](CCCCNC(=O)COCCOCCNC(=O)COCCOCCNC(=O)CC[C@H](NC(=O)CCCCCCCCCCCCCCC(=O)O)C(=O)O)C(=O)N[C@@H](CCC(N)=O)C(=O)N[C@@H](CCC(N)=O)C(=O)N[C@@H](CC(=O)O)C(=O)N[C@@H](Cc1ccccc1)C(=O)N[C@H](C(=O)N[C@@H](CC(N)=O)C(=O)N[C@@H](Cc1c[nH]c2ccccc12)C(=O)N[C@@H](CC(C)C)C(=O)N[C@@H](CC(C)C)C(=O)N[C@@H](C)C(=O)N[C@@H](CCC(N)=O)C(=O)N[C@@H](CCCCN)C(=O)N1CCC[C@H]1C(=O)N[C@@H](CO)C(=O)N[C@@H](CO)C(=O)NCC(=O)N[C@@H](C)C(=O)N1CCC[C@H]1C(=O)N1CCC[C@H]1C(=O)N1CCC[C@H]1C(=O)N[C@@H](CO)C(=O)O)C(C)C)[C@@H](C)CC
On to B6, for which the “cAMP agonism % Emax” value was 0%, the “cAMP antagonism” value worked out at 17.1 nM, the “cAMP antagonism % inhib” value stood at 93% and the “cAMP antagonism pIC50” value was 7.8.
